# Experiments:
# Test in all cases: flow cytometry, transfected 293T cells
# [1] = biological target: CHIKV E2-E1 envelope glycoproteins (strain S27), E2 mutant G44A (chikungunya virus strain S27) (UniProt Q8JUX5)
# [2] = biological target: CHIKV E2-E1 envelope glycoproteins (strain S27), E2 mutant G57A (chikungunya virus strain S27) (UniProt Q8JUX5)
# [3] = biological target: CHIKV E2-E1 envelope glycoproteins (strain S27), E2 mutant A103S (chikungunya virus strain S27) (UniProt Q8JUX5)
# [4] = biological target: CHIKV E2-E1 envelope glycoproteins (strain S27), E2 mutant T126A (chikungunya virus strain S27) (UniProt Q8JUX5)
# [5] = biological target: CHIKV E2-E1 envelope glycoproteins (strain S27), E2 mutant D71A (chikungunya virus strain S27) (UniProt Q8JUX5)
# [6] = biological target: CHIKV E2-E1 envelope glycoproteins (strain S27), E2 mutant P128A (chikungunya virus strain S27) (UniProt Q8JUX5)
# [7] = biological target: CHIKV E2-E1 envelope glycoproteins (strain S27), E2 mutant T96A (chikungunya virus strain S27) (UniProt Q8JUX5)
# [8] = biological target: CHIKV E2-E1 envelope glycoproteins (strain S27), E2 mutant V113A (chikungunya virus strain S27) (UniProt Q8JUX5)
# [9] = biological target: CHIKV E2-E1 envelope glycoproteins (strain S27), E2 mutant R68A (chikungunya virus strain S27) (UniProt Q8JUX5)
# [10] = biological target: CHIKV E2-E1 envelope glycoproteins (strain S27), E2 mutant A33S (chikungunya virus strain S27) (UniProt Q8JUX5)
# [11] = biological target: CHIKV E2-E1 envelope glycoproteins (strain S27), E2 mutant H73A (chikungunya virus strain S27) (UniProt Q8JUX5)
# [12] = biological target: CHIKV E2-E1 envelope glycoproteins (strain S27), E2 mutant K66A (chikungunya virus strain S27) (UniProt Q8JUX5)
# [13] = biological target: CHIKV E2-E1 envelope glycoproteins (strain S27), E2 mutant L52A (chikungunya virus strain S27) (UniProt Q8JUX5)
# [14] = biological target: CHIKV E2-E1 envelope glycoproteins (strain S27), E2 mutant A78S (chikungunya virus strain S27) (UniProt Q8JUX5)
# [15] = biological target: CHIKV E2-E1 envelope glycoproteins (strain S27), E2 mutant I121A (chikungunya virus strain S27) (UniProt Q8JUX5)
# [16] = biological target: CHIKV E2-E1 envelope glycoproteins (strain S27), E2 mutant D77A (chikungunya virus strain S27) (UniProt Q8JUX5)
# [17] = biological target: CHIKV E2-E1 envelope glycoproteins (strain S27), E2 mutant N39A (chikungunya virus strain S27) (UniProt Q8JUX5)
# [18] = biological target: CHIKV E2-E1 envelope glycoproteins (strain S27), E2 mutant F115A (chikungunya virus strain S27) (UniProt Q8JUX5)
# [19] = biological target: CHIKV E2-E1 envelope glycoproteins (strain S27), E2 mutant H131A (chikungunya virus strain S27) (UniProt Q8JUX5)
# [20] = biological target: CHIKV E2-E1 envelope glycoproteins (strain S27), E2 mutant I56A (chikungunya virus strain S27) (UniProt Q8JUX5)
# [21] = biological target: CHIKV E2-E1 envelope glycoproteins (strain S27), E2 mutant Q53A (chikungunya virus strain S27) (UniProt Q8JUX5)
# [22] = biological target: CHIKV E2-E1 envelope glycoproteins (strain S27), E2 mutant D60A (chikungunya virus strain S27) (UniProt Q8JUX5)
# [23] = biological target: CHIKV E2-E1 envelope glycoproteins (strain S27), E2 mutant A76S (chikungunya virus strain S27) (UniProt Q8JUX5)
# [24] = biological target: CHIKV E2-E1 envelope glycoproteins (strain S27), E2 mutant F129A (chikungunya virus strain S27) (UniProt Q8JUX5)
# [25] = biological target: CHIKV E2-E1 envelope glycoproteins (strain S27), E2 mutant A81S (chikungunya virus strain S27) (UniProt Q8JUX5)
# [26] = biological target: CHIKV E2-E1 envelope glycoproteins (strain S27), E2 mutant S122A (chikungunya virus strain S27) (UniProt Q8JUX5)
# [27] = biological target: CHIKV E2-E1 envelope glycoproteins (strain S27), E2 mutant D43A (chikungunya virus strain S27) (UniProt Q8JUX5)
# [28] = biological target: CHIKV E2-E1 envelope glycoproteins (strain S27), E2 mutant Y69A (chikungunya virus strain S27) (UniProt Q8JUX5)
# [29] = biological target: CHIKV E2-E1 envelope glycoproteins (strain S27), E2 mutant R104A (chikungunya virus strain S27) (UniProt Q8JUX5)
# [30] = biological target: CHIKV E2-E1 envelope glycoproteins (strain S27), E2 mutant P90A (chikungunya virus strain S27) (UniProt Q8JUX5)
# [31] = biological target: CHIKV E2-E1 envelope glycoproteins (strain S27), E2 mutant S124A (chikungunya virus strain S27) (UniProt Q8JUX5)
# [32] = biological target: CHIKV E2-E1 envelope glycoproteins (strain S27), E2 mutant S51A (chikungunya virus strain S27) (UniProt Q8JUX5)
# [33] = biological target: CHIKV E2-E1 envelope glycoproteins (strain S27), E2 mutant S118A (chikungunya virus strain S27) (UniProt Q8JUX5)
Substance,Binding Reactivity (% WT) [1],Binding Reactivity (% WT) [2],Binding Reactivity (% WT) [3],Binding Reactivity (% WT) [4],Binding Reactivity (% WT) [5],Binding Reactivity (% WT) [6],Binding Reactivity (% WT) [7],Binding Reactivity (% WT) [8],Binding Reactivity (% WT) [9],Binding Reactivity (% WT) [10],Binding Reactivity (% WT) [11],Binding Reactivity (% WT) [13],Binding Reactivity (% WT) [14],Binding Reactivity (% WT) [15],Binding Reactivity (% WT) [16],Binding Reactivity (% WT) [17],Binding Reactivity (% WT) [19],Binding Reactivity (% WT) [20],Binding Reactivity (% WT) [21],Binding Reactivity (% WT) [22],other results
CHIKV mAb C9 (antibody),72.5 % WT,109 % WT,69.7 % WT,106 % WT,91.8 % WT,112 % WT,99.2 % WT,81.8 % WT,64.8 % WT,86 % WT,89.6 % WT,84.7 % WT,84.1 % WT,96.7 % WT,93.3 % WT,108 % WT,24.4 % WT,114 % WT,39.6 % WT,74 % WT,Binding Reactivity (% WT) [12]: 85.7 % WT; Binding Reactivity (% WT) [18]: 4.3 % WT; Binding Reactivity (% WT) [23]: 107 % WT; Binding Reactivity (% WT) [24]: 6.7 % WT; Binding Reactivity (% WT) [25]: 86.6 % WT; Binding Reactivity (% WT) [26]: 98.7 % WT; Binding Reactivity (% WT) [27]: 11.1 % WT; Binding Reactivity (% WT) [28]: 55.3 % WT; Binding Reactivity (% WT) [29]: 91.6 % WT; Binding Reactivity (% WT) [30]: 100 % WT; Binding Reactivity (% WT) [31]: 116 % WT; Binding Reactivity (% WT) [32]: 85.3 % WT; Binding Reactivity (% WT) [33]: 97.4 % WT
CHIKV mAb CHKV-88 (antibody),98.1 % WT,134 % WT,85 % WT,95.1 % WT,108 % WT,102 % WT,103 % WT,112 % WT,74.7 % WT,123 % WT,91.8 % WT,100 % WT,126 % WT,111 % WT,94.7 % WT,124 % WT,56.3 % WT,116 % WT,85 % WT,56.5 % WT,Binding Reactivity (% WT) [12]: 103 % WT; Binding Reactivity (% WT) [18]: 25.1 % WT; Binding Reactivity (% WT) [23]: 122 % WT; Binding Reactivity (% WT) [24]: 25.1 % WT; Binding Reactivity (% WT) [25]: 82.3 % WT; Binding Reactivity (% WT) [26]: 84.3 % WT; Binding Reactivity (% WT) [27]: 37.5 % WT; Binding Reactivity (% WT) [28]: 95.4 % WT; Binding Reactivity (% WT) [29]: 76 % WT; Binding Reactivity (% WT) [30]: 119 % WT; Binding Reactivity (% WT) [31]: 112 % WT; Binding Reactivity (% WT) [32]: 96.9 % WT; Binding Reactivity (% WT) [33]: 117 % WT
CHIKV mAb IM-CKV063 (antibody),68.2 % WT,96.5 % WT,65.8 % WT,83.4 % WT,98.9 % WT,86 % WT,111 % WT,79.8 % WT,67.1 % WT,99.4 % WT,84.2 % WT,107 % WT,99.1 % WT,109 % WT,92.2 % WT,120 % WT,16.5 % WT,111 % WT,37.3 % WT,64.8 % WT,Binding Reactivity (% WT) [12]: 84.2 % WT; Binding Reactivity (% WT) [18]: 3.6 % WT; Binding Reactivity (% WT) [23]: 107 % WT; Binding Reactivity (% WT) [24]: 3.9 % WT; Binding Reactivity (% WT) [25]: 93 % WT; Binding Reactivity (% WT) [26]: 82.8 % WT; Binding Reactivity (% WT) [27]: 8.3 % WT; Binding Reactivity (% WT) [28]: 60.7 % WT; Binding Reactivity (% WT) [29]: 75.7 % WT; Binding Reactivity (% WT) [30]: 95.3 % WT; Binding Reactivity (% WT) [31]: 97.8 % WT; Binding Reactivity (% WT) [32]: 89.8 % WT; Binding Reactivity (% WT) [33]: 93.1 % WT
Mxra8-Fc (mouse Mxra8 extracellular domain fused to mouse IgG2b Fc) (Fc fusion),72.2 % WT,106 % WT,91.3 % WT,76 % WT,-0.3 % WT,122 % WT,95.6 % WT,78 % WT,66.1 % WT,85.3 % WT,102 % WT,86.8 % WT,106 % WT,12.1 % WT,83.7 % WT,91.9 % WT,15.7 % WT,91.7 % WT,26.3 % WT,102 % WT,Binding Reactivity (% WT) [24]: 4.1 % WT; Binding Reactivity (% WT) [25]: 85.2 % WT; Binding Reactivity (% WT) [26]: 101 % WT; Binding Reactivity (% WT) [27]: 36.2 % WT; Binding Reactivity (% WT) [28]: 106 % WT; Binding Reactivity (% WT) [30]: 114 % WT; Binding Reactivity (% WT) [31]: 92.8 % WT; Binding Reactivity (% WT) [32]: 99.2 % WT; Binding Reactivity (% WT) [33]: 89.6 % WT
